Measured values as given in the nanobody polyreactivity screen of Harvey et al. (2022).

Assay: yeast display, Sf9 membrane polyspecificity reagent, FACS + sequencing; frameworks hold sequencing errors
Method in brief: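 In a synthetic yeast display library (Saccharomyces cerevisiae BJ5465), nanobody expression was induced with galactose for 36–48 hours. FACS gates were set low and high (top ~1%) using anti-HA fluorescence for expression and streptavidin fluorescence for binding of the Sf9 membrane reagent. Each polyreactivity label is drawn from the gate of origin.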

Question: With “QVQLVESGGALVQAGCSLRLSCAASGITFAPYAKGWYRQAPGKEREMVAGINTGGSTYYADSVKGRFTISRDNAKYTVYLQMNSLKPEDTADYYCATESYPADQDIPGSDYWGQGTQVTVSS” as the sequence, how does the “polyreactivity (PSR sort gate)” value read?
Answer: Its value is “low polyreactivity”.

Question: With “QVQLVESGGALVQAGGSHRLSCAASGIIFDYNAAMGWYRQAPGKERELVAAISISGGSTYYADSVKGRFTISRDNAKNTVYLQMNSPKPEDTAVSYCAAVNYEWNYGYDYWGPGTQVTVSS” as the sequence, how does the “polyreactivity (PSR sort gate)” value read?
Answer: Its value is “low polyreactivity”.

Question: With “QVQLVESGGALVQAGGSLRLRCAASGRIFRLYAMGWYRQAPGKERELVAAISSSGADTYYADSVKGRFTISSDNAKNTVDLQMNSLKPEETAVYYCAARTWHRYDYFGQGTQVTVSS” as the sequence, how does the “polyreactivity (PSR sort gate)” value read?
Answer: Its value is “high polyreactivity”.

Question: For “QVQLVESGGALVQAGGSLRLSCAASARTFIQNGMGWNRQEPGKERELVAAISYRGGTTSYADSVQGRFTISRDNAKNTVYLQMNSLKPEVTAVYYCAKRYTYYSYDYWGQGTQVTVSS”, which “polyreactivity (PSR sort gate)” value is on record?
Answer: The value was “high polyreactivity”.

Question: With “QVQLVESGGALVQAGGSLRLSCAASGFTLSAYAKGWYRQAPGKERELVAGISYTGGRTYYADSVKGRFTISRDNAKNTVYLQMNSLKPEDTAVYYCNKAWSGYYKYGYWGQGTQVTVSS” as the sequence, how does the “polyreactivity (PSR sort gate)” value read?
Answer: Its value is “low polyreactivity”.

Question: Which “polyreactivity (PSR sort gate)” value does the source give for “QVQLVESGGALVQAGGSLRLSCAASGGTFFSNAMGWYRQAPGKERELVAAISNDDGDTYYADSVKGRFTISRDNAKNTVYLQMNSLKPEDTAVYYCAVDYSYLHRTTFEYWGQGTQVTVSS” here?
Answer: Its value is “low polyreactivity”.

Question: For “QVQLVESGGALVQAGGSLRLSCAASGRIFGVNAIGWYRQAPGKERELVADISSGGSTNYADSVKGRFTISRDNAKNTVYLQMNSLKPEDTAVYYCAARTLRAGYRASGVRRDYWGQGTQVTVSS”, which “polyreactivity (PSR sort gate)” value is on record?
Answer: Its value is “high polyreactivity”.

Question: Which “polyreactivity (PSR sort gate)” value does the source give for “QVQLVESGGALVQAGGSLRLSCAASGRIFVVNAMGWYRQAPGKERELGAAISIRGTRTYYADSVKGRFTISRDNAKNTVYLQMNSLKPEDTAVYYCAADASYTEGMDYWGQGTQVTVSS” here?
Answer: The value was “high polyreactivity”.

Question: With “QVQLVESGGALVQAGGSLRLSCAASGRIIYKNAMRWYRQAPGKETELVATITYSDGTTYYADSVKGRFTISRDNAKNTVYLQMNSLKPEDTAVYYCAAQTDSVESDYWGQGTQVTVSS” as the sequence, how does the “polyreactivity (PSR sort gate)” value read?
Answer: The value was “low polyreactivity”.

Question: For “QVQLVESGGALVQAGGSLRLSCAASGRTFNRYGMGRYRQAPGEERELVASITSGGSTNYADSVKGRFTISRDNAKNTVFLQMNSLKPEDTAVYYCAKRSIGRYPRTYDYWGQGTKVTVSS”, which “polyreactivity (PSR sort gate)” value is on record?
Answer: Its value is “low polyreactivity”.

Question: For “QVQLVESGGALVQAGGSLRLSCAASGRTFTFNTMGWYRQAPGKERELVAAIDGDGTTNYADSVKGRFTISRDNAKNTVYLLMNSLKPEDTAVYYCAADFLYSFWYEPTFDYCGQGTQVTVSS”, which “polyreactivity (PSR sort gate)” value is on record?
Answer: Its value is “low polyreactivity”.

Question: For “QVQLVESGGALVQAGGSLRLSCAASGSISTYAIGWYRQAPGKERELVAAMNKRGGSTYYADSVKGRFTISRDNAKNTVDLQMNSLKPADTAVDYCAAGLAHSAAFDYWGQGTQVTVSS”, which “polyreactivity (PSR sort gate)” value is on record?
Answer: The value was “low polyreactivity”.

Question: For “QVQLVESGGALVQAGGSLRLSCAASGSTFPYYAMGWYRQAPGKERELVAAISRGGGITYYADSVKGRLTISRDNAKNTVYLQMISLKPEDTAVYYCAARGFWWPYTYYYWGQGTQVTVSS”, which “polyreactivity (PSR sort gate)” value is on record?
Answer: The value was “high polyreactivity”.

Question: Which “polyreactivity (PSR sort gate)” value does the source give for “QVQLVESGGALVQAGGSLRLSCAASGSTFRYDMGWYRQAPGKERELVAAITWGGVSTYYADSVKGRFTISRDNAKNTVYLQMNSLKPEDTAVYYCNVVISLQQGDYWGQGTQVTVSS” here?
Answer: The value was “low polyreactivity”.

Question: For “QVQLVESGGALVQAGGSLRLSCAASGSTFYGYAMGWYRQATGKERELVASITTRGGRTNYADSVKVRFTISRDNAKNTVYLEMNSLKPEDNSVYYCATYSYVTRYARWGEFDYWGQGTQVTVSS”, which “polyreactivity (PSR sort gate)” value is on record?
Answer: The value was “high polyreactivity”.

Question: With “QVQLVESGGALVQAGGSLRLSCAASGSTFYRNAMGWYRPAPGKERELVATISSSDGSTYYADSVKGRFTISRDNAKNTVYVQMNSLKPEDTAVYYCNADPISSGSVANFQYDYCGQGTQVTVSS” as the sequence, how does the “polyreactivity (PSR sort gate)” value read?
Answer: The value was “low polyreactivity”.

Question: Which “polyreactivity (PSR sort gate)” value does the source give for “QVQLVESGGALVQAGGSLRLSCAASGSTMGWYRQAPGKVREFVAAIRWIGGGTYYADSVKGRFTISRDNAKNTVYLQMNSLKPEDTGVYYCAARLSVAWVGYDYWGQGTQVTVSS” here?
Answer: Its value is “low polyreactivity”.

Question: For “QVQLVESGGALVQAGGSLRLSCAASGSTSYTNAMGLYRHAPGKEREFVASISLSAGSTYYADSVKGRFKISRDNAKNTVYLQMNSLKPEDTAVYYCASESVAILGLVYPKGYGYWGQGTQVTVSS”, which “polyreactivity (PSR sort gate)” value is on record?
Answer: Its value is “low polyreactivity”.

Question: With “QVQLVESGGALVQAGGSLRLSCAASGYTFCYNAMGWYRQAPGKEREFVAAISWSGGSTYYADSVKGRFTISRDNAKNTVYLQMYSLKPEDTAVYYCAVEGVYWYVSMYYWGQGTQVTVSS” as the sequence, how does the “polyreactivity (PSR sort gate)” value read?
Answer: Its value is “low polyreactivity”.

Question: Which “polyreactivity (PSR sort gate)” value does the source give for “QVQLVESGGALVQAGGSLRLSCAASGYTFSKYAMGWYRQAPGKERELVAAISKRGGSTSYADSVKGRFTISRDNAKNTVYLQMNILKPEDTAVYYCNAREWSRTFDYWGQGSQVTVSS” here?
Answer: The value was “high polyreactivity”.

Question: For “QVQLVESGGALVQAGGTLRLSGAASGIIFDGYAMGWYRQAPGKEREFVAVISSSGGTTYYADSVKGRFTISRDNAKNTVYLQMNRLKPEDSAVYYCACVYVSLWPSATYWSGFGYWGQGTKVTVSS”, which “polyreactivity (PSR sort gate)” value is on record?
Answer: The value was “low polyreactivity”.

Question: With “QVQLVESGGALVQARGSLRLSSAASGSIFPFYAMPSYRQAPGKERELVAAISDRGGSTYYADSVKGRFTISRDNAKNTVYLQMNSLKPEDTAVYYCAVDGYGWGSSSSWFRSLYDYWGQGTQVTVSS” as the sequence, how does the “polyreactivity (PSR sort gate)” value read?
Answer: Its value is “low polyreactivity”.

Question: Which “polyreactivity (PSR sort gate)” value does the source give for “QVQLVESGGALVQEGGSLRLSCAASGITFAGNAMGWYRQAPGKERELVATITSDGNTNYAVSVKGRFTISRDNAKNTVYLQMNSLKPEDTAVYYCNAEGENRRDRYDYWGQGTQVTVSS” here?
Answer: The value was “low polyreactivity”.

Question: For “QVQLVESGGCLDQAGGSLRLSCAASGRIFDHYAMGWYRQAPGKEMELVAAITRSGGITYYADSVKGRFTISRDNAKNTVYLQMNSLKPEDTAVYYCAALSYRYTDKFDYWGQGTQVTVSS”, which “polyreactivity (PSR sort gate)” value is on record?
Answer: The value was “low polyreactivity”.

Question: For “QVQLVESGGCLDQAGGSLRLSCAASGSIFYYYTMGWSRQAPGKEREFVATITYSGGSTYYADSVKGRITISRDNAKYTVYLQMNSLKPEDTAVYYCNARPRYYDWVDYWGQGTQVTVSS”, which “polyreactivity (PSR sort gate)” value is on record?
Answer: Its value is “low polyreactivity”.

Question: With “QVQLVESGGCLFQAGGSLRLICAASGSISGLYAIGWYRQAPGKERELVARIRWRGDSTYYADSVKGRFTISRDNAKNTVYLQMNSLKPEDTAVYYCAASAYSGKVNKYNYWGQGTQVTVSS” as the sequence, how does the “polyreactivity (PSR sort gate)” value read?
Answer: Its value is “high polyreactivity”.

Question: For “QVQLVESGGCLIKEVGSLRLSCAASGNIFVFYGKGWYRQAPGKERELVAAIDSGGSSTYYADSVKGRFTISRDNAKNTVYLKMKSLKPEDTAFDYCSARPYYSWNYDYWGQGTQVTVSS”, which “polyreactivity (PSR sort gate)” value is on record?
Answer: Its value is “low polyreactivity”.

Question: With “QVQLVESGGCLLQAGATLRLSCASSGSIFNGKAMGWYRQAPGKERELVAANTWSGGSTYYADSVKGRFTISRDNAKNSVYLQMNSLKPEDTAVYYCNTYTYRGYDYWGQGTQVTVSS” as the sequence, how does the “polyreactivity (PSR sort gate)” value read?
Answer: The value was “high polyreactivity”.

Question: With “QVQLVESGGCLVQAGCSLRLSCAASGSTFYSYAMGWYRQAPGKERELVAAINWDGVSTYYADSVKGRFTISRDNAKNTVYLQMNSMKPEDTAVYFCAAELFYGYRISGTYYYWGQGTQVTVSS” as the sequence, how does the “polyreactivity (PSR sort gate)” value read?
Answer: Its value is “low polyreactivity”.

Question: Which “polyreactivity (PSR sort gate)” value does the source give for “QVQLVESGGCLVQAGGSIRLSFAASGSISIRNAMGWYRQAPGTERELVAAISRGGSTYYADSVKGRFTISRDNAKNTVYLQMNSLNPEDTAVYYFATDGGLYYRGREYAFKYFYWGQGTQLTVSS” here?
Answer: Its value is “high polyreactivity”.

Question: With “QVQLVESGGCLVQAGGSLRLCCAASGSTFDSNAMGSYRQAPGIERELVAAISSDGSTTYADSVKGRFTISRDNAMNTVYLQMNSLKPEDTAVYYCEYYYWGQGTQVSVSS” as the sequence, how does the “polyreactivity (PSR sort gate)” value read?
Answer: The value was “low polyreactivity”.

Question: Which “polyreactivity (PSR sort gate)” value does the source give for “QVQLVESGGCLVQAGGSLRLICAASGRIIDRNAMGWYRHAPGKERELVAAISSSGSTYYADSVKGRFTISRDNAKITVYLQMNSLKPEDTAVYYCNKRARHSGDFVWGHGYWGQGTQVNVSS” here?
Answer: The value was “low polyreactivity”.

Question: For “QVQLVESGGCLVQAGGSLRLICAASGRIVKYAMGWYRQAPGKERELVAAISGSGGTTYYADSVKGRFTISRDNAKNTVYLQMNSLKPEDTAVYYCAASRPRPPSSRRMDYWGQGTQVTVSS”, which “polyreactivity (PSR sort gate)” value is on record?
Answer: The value was “high polyreactivity”.

Question: For “QVQLVESGGCLVQAGGSLRLSCAASGFIFAYNAMGWYRQAPGKERELDAAISWSGGSTYYADSVKGRFTISRDNAKNTVYLQMNSLKPEDTAVYYCNKYIRYPFKRYGYWGQGTQVTVSS”, which “polyreactivity (PSR sort gate)” value is on record?
Answer: The value was “high polyreactivity”.

Question: With “QVQLVESGGCLVQAGGSLRLSCAASGFIFNKYAMGWSRQATGKERELVAAISFRGGRTYYADSVKGRFTISRDNAKNTVYFQMNSLKPEDTAVYYCAAETRDYSEGYYWGQGTQVTVSS” as the sequence, how does the “polyreactivity (PSR sort gate)” value read?
Answer: The value was “high polyreactivity”.

Question: Which “polyreactivity (PSR sort gate)” value does the source give for “QVQLVESGGCLVQAGGSLRLSCAASGFIFSTNAMAWYRQARGTERELVAAITGRGTNTYYADSVKGRFTISRDNAKNTVYLQMNSLKPEDTAVYYCAADGGSYSDYDYWGLGTQVTVSS” here?
Answer: The value was “high polyreactivity”.

Question: With “QVQLVESGGCLVQAGGSLRLSCAASGFTFRRYTMGWSRQAPGKDRELVAAISGRGGRTYYADSVKGRFTISRDNAKNTVYLQMNSLQPQDTAVYYSAADTPYWQSSKYDYWGQGTQVTVSS” as the sequence, how does the “polyreactivity (PSR sort gate)” value read?
Answer: The value was “high polyreactivity”.

Question: With “QVQLVESGGCLVQAGGSLRLSCAASGFTFSNYAMGWYRQPPGKESEFVAAISGTGGSTYYADSVKGRFTISRVNAKNTVYLQMNSLKPEDTAVYYCARRRTYPPGRYYYWGQGTQVTVSS” as the sequence, how does the “polyreactivity (PSR sort gate)” value read?
Answer: Its value is “high polyreactivity”.

Question: With “QVQLVESGGCLVQAGGSLRLSCAASGFTFVGYAMGWYRQAPGKERELVAAITSSGGSTYYADSVKGRFTISRDNAKNTVYLQMNSLKPEDTAVYYCAAPAPVLSTQKRFDSWGQGTQVTVSS” as the sequence, how does the “polyreactivity (PSR sort gate)” value read?
Answer: The value was “low polyreactivity”.

Question: Which “polyreactivity (PSR sort gate)” value does the source give for “QVQLVESGGCLVQAGGSLRLSCAASGFTFYGYAMAWYRQAPGKERELVAYISWSGGTTYYADSVKGRFTISRDNAKNTVYLQMNSLKPEDTAVYYCNAVRYRYGVFPYYYWGQGTQVTVSS” here?
Answer: The value was “high polyreactivity”.

Question: Which “polyreactivity (PSR sort gate)” value does the source give for “QVQLVESGGCLVQAGGSLRLSCAASGGTFGPNAKGSYRQAPGKERELVAAISWTTGRTYADSVKGRFTISRDNAKNTVYLQMNSLKPEDTAVYYCATRAYRLDPLQHDYWGQGTQVTVSS” here?
Answer: The value was “low polyreactivity”.
